From patent US20250282887A1 (Amgen, published 2025)
Where a chain is given by its changes, count along the chain named.

B1: 1I14 (antibody, V domains shown)
VH: QSVEESGGRLVTPGTPLTLTCTISGFSLSSYAMSWVRQAPGKGLEWIGSIGGGGSAVYASWAKGRFTISKTSTTVDLRITSPTTEDTAMYFCGRGFYSIDLWGPGTLVTVSS
VL: DVVMTQTPASVEATVGGTVTIKCQSSQSVYDNNALAWYQQNAGQRPRLLIYGASTLASGVPSRFSASGSGTEFTLTISDLECADAATYYCQCTYYVSSYQNDFGGGTEVVVKG
notes: also called MAGE-B2 (1i14)
B2: 1C3 (antibody, V domains shown)
VH: QSLEESGGGLVQPEGSLTLTCTAFGVTLTNYYICWVRQAPGKGLEWVGCIDNANGRTYYASWAKGRFTISKTSSTTGTLQMTSLTAADTATYFCARSLATPLWGPGTLVTVSS
VL: DIVMTQTPSSVEAAVGGTVTIKCQASQNISSYLAWYQQKPGQPPKLLIYRASTLASGVPSRFKGSGSGTQFTLTISDLECADAATYYCQSYDDSRSSNFFYAFGGGTEVVVKG
notes: also called MAGE-B2 (IC3); anti-MAGEB2 antibody 1C3
B3: 4G17 (antibody, IgG1, V domains shown)
VH: B2 VH with F24S, T29S, V47I, A53V
VL: DIVMTQTPASVEAAVGGTVTIKCQASQNIDSYLAWYQQKPGQPPKLLIYRASTLASGVPSRFKGSGSGTEFTLTISDLECADAATYYCQSYDDSRSSSFFYGFGGGTEVVVK
notes: Rabbit monoclonal IgG1; Tested as supernatant and as small batch purified antibody; also called MAGE-B2 (4G17); anti-MAGEB2 antibody 4G17
B4: 1J15 (antibody, IgG1, V domains shown)
VH: B2 VH with V26F, T29N, V47I, G48A, G77V, A99S
VL: B3 VL with N28S, D30S, A34S, K63R, E70Q, R95S, S96D, S97N, S98N, K112R
notes: Rabbit monoclonal IgG1; Tested as supernatant and as small batch purified antibody; also called MAGE-B2 (IJ15); anti-MAGEB2 antibody 1J15

What follows are binders tested against T1, human MAGEB4 (human, UniProt O15481 1-346) (assay: IHC, FFPE CHO cells transfected with human MAGEB4).
T1 construct: whole, on cells
T1 sequence (looked up): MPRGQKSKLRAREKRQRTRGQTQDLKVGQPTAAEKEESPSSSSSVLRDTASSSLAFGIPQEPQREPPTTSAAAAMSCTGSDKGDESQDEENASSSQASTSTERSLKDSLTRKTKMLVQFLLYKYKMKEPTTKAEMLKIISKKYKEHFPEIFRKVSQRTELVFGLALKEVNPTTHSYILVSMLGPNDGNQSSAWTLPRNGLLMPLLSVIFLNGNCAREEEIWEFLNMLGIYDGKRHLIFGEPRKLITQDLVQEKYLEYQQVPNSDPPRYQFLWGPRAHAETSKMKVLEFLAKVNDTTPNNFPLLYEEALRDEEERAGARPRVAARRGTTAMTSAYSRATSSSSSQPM
From the text: (§1) Negative control cells included parental Chinese hamster ovary (CHO) cells, CHO cells stably transfected with mCherry Vector Control (minus Myc/DDK tags), CHO cells stably transfected with mCherry-human DCAF4L2 (plus Myc/DDK tags). The cross-reactivity control cells included CHO cells transfected with mCherry Vector Control (plus Myc/DDK tags) with one of the human MAGE-B or MAGE-A family members (MAGEA1, MAGEA2, MAGEA3, MAGEA4, MAGEA5, MAGEA6, MAGEA8, MAGEA9, MAGEA11, MAGEA12, MAGEB1, MAGEB3, MAGEB4, MAGEB5, MAGEB6, MAGEB10, MAGEB16, MAGEB17, MAGEB18). Positive control cell lines included CHO cells transfected with mCherry Vector (plus Myc/DDK tags) with human MAGE-B2 or CHO cells transfected with mCherry Vector (open reading frame (ORF); minus Myc/DDK tags) with human MAGEB2, and thirteen human cancer cell lines with known endogenous RNA expression level of MAGEB2 (U266B1, T98G, KMM-1, U20S, CFPAC-1, SCaBER, UACC-257, CFPAC-1, VMRC-LCD, NCI-H1703, UM-UC-3, NCI-H1395, NCIH82).
(§2) FFPE samples were sectioned at 4 μm and mounted on positive charged glass slides. After mounting, paraffin sections were air-dried at room temperature. FFPE TMA samples were received as freshly sectioned and mounted on glass slides. The fully automated IHC assay was performed on a Discovery Ultra Stainer (Ventana Medical Systems, Tucson, AZ) using Ventana Anti-Rabbit HQ (cat #760-4815), Ventana Anti-HQ HRP (cat #760-4820), and Ventana Antibody Diluent with Casein (cat #760-219) (Ventana Medical Systems, Tucson, AZ). The slides were baked on the Discovery Ultra Stainer at 60° C. for 8 minutes, de-paraffinized with Ventana Discovery wash (cat #950-510) for 3 cycles (8 minutes each) at 69° C., and underwent cell conditioning (target retrieval) at 95° C. for 16 minutes (for cell arrays) or 32 minutes (tissues or TMAs) in CC1 buffer (cat #950-500). Following this, slides were incubated with Background Sniper (cat #BS966M, Biocare Medical, Pacheco, CA) in a Ventana Option Prep kit (cat #771-751) for 28 minutes, incubated with CM inhibitor (a part of the Ventana DAB kit cat #760-159) for 12 minutes, and incubated for 1 h at RT with MAGE-B2 antibody diluted with Ventana diluent with Casein in a Ventana Prep kit (cat #770-001) (working concentration at 0.1 μg/ml for cell pellet, or 1-5 ug/ml for tissues) or with a matched concentration of isotype control Rabbit IgG1 antibody.

Binding result, no binding (tested: 0.1 µg/ml):
B1, B2, B3, B4

Each binder was assayed against T2, human MAGEB10 (human, UniProt Q96LZ2 1-347) (assay: IHC, FFPE CHO cells transfected with human MAGEB10).
T2 construct: whole, on cells; FFPE cell pellets
T2 sequence (looked up): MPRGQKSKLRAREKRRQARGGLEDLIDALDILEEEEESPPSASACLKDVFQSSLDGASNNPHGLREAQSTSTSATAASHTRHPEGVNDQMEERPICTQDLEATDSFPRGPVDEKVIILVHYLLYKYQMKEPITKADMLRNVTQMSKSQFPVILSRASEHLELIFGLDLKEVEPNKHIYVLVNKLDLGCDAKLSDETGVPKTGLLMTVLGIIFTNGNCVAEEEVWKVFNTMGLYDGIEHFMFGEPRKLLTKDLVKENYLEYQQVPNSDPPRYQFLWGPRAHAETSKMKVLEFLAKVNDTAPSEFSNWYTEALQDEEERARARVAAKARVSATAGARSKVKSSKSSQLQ
From the text: as §1, §2

Binding result, no binding (tested: 0.1 µg/ml):
B1, B2, B3, B4

These binders were tested against T3, human MAGEB3 (human, UniProt O15480 1-346) (assay: IHC, FFPE CHO cells transfected with human MAGEB3).
T3 construct: whole, on cells; Transfected into CHO cells with Myc/DDK tags
T3 sequence (looked up): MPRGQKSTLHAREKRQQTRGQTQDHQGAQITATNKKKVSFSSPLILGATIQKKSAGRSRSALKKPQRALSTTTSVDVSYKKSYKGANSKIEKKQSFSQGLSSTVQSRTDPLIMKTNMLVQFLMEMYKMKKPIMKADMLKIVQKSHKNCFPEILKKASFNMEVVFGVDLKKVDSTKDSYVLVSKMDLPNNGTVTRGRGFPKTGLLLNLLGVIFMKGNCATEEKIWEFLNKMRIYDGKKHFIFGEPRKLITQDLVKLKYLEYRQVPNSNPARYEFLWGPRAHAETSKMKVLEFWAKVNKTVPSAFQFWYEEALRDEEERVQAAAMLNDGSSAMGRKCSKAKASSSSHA
From the text: as §1, §2

Binding result, no binding (tested: 0.1 µg/ml):
B1, B2, B3, B4
